# Source: paper PMC2816707, “A Humanized Anti-VEGF Rabbit Monoclonal Antibody Inhibits Angiogenesis and Blocks Tumor Growth in Xenograft Models” (PLoS ONE, 2010)
# Where a chain is given by its changes, count along the chain named.
# B1: humanized EBV321 (antibody, V domains shown)
# VH: EVQLVESGGGLVKPGGSLRLSCAASGFSFSNNDVMCWVRQAPGKGLEWIGCIMTTDVVTEYANWAKSRFTVSRDSAKNSVYLQMNSLRAEDTAVYFCARDSVGSPLMSFDLWGPGTLVTVSS
# VL: DIQMTQSPSSLSASVGDRVTINCQASQSIYNNNELSWYQQKPGKPPKLLIYRASTLASGVPSRFSGSGSGTDFTLTISSLQPEDVATYYCGGYKSYSNDGNGFGGGTKVEIK
# notes: also called hEBV321; humanized anti-VEGF RabMAb; source: 293-6E cells, L and H chain plasmids co-transfected, purified (protein A)
# B2: anti-VEGF RabMAb EBV321 (antibody, V domains shown)
# VH: QSLEESGGDLVKPGASLTLSCTASGFSFSNNDVMCWVRQAPGKGLEWIGCIMTTDVVTEYANWAKSRFTVSKTSSSTVTLQLTSLTVADTATYFCARDSVGSPLMSFDLWGPGTLVTVSS
# VL: LVMTQTPASVSAAVGGTVTINCQASQSVYGNNELSWYQQKPGQPPKLLIYRASTLASGVPSRFSGSGSGTQFTLTISGVQCADAATYYCGGYKSYSNDGNGFGGGTEVVVK
# notes: also called parental EBV321; source: 293-6E cells, L and H chain plasmids co-transfected, purified (protein A)
# B3: heavy chain of EBV307 paired with light chain of EBV321 (antibody, V domains shown)
# VH: B2 VH with L3V, D9G, A15G, S16T, S20T, A23V, E59A, K72R, S76T, L82V
# VL: B2 VL
# notes: also called 307H/321L
# B4: heavy chain of EBV307 paired with light chain of EBV302 (antibody, V domains shown)
# VH: B2 VH with L3V, D9G, A15G, S16T, S20T, A23V, E59A, K72R, S76T, L82V
# VL: B2 VL with T19I, S27N, V28L, G30N, R51W, S64K, G90A, D98G
# notes: also called 307H/302L
# B5: heavy chain of EBV307 paired with light chain of EBV320 (antibody, V domains shown)
# VH: B2 VH with L3V, D9G, A15G, S16T, S20T, A23V, E59A, K72R, S76T, L82V
# VL: B2 VL with S27N, V28L, G30N, R51W, S64K, G90A
# notes: also called 307H/320L
# B6: anti-VEGF RabMAb EBV307 (antibody, V domains shown)
# VH: B2 VH with L3V, D9G, A15G, S16T, S20T, A23V, E59A, K72R, S76T, L82V
# VL: B2 VL with P44R, A82F, G90S, S96Y, N100S
# notes: also called 307H/307L; source: 293-6E cells, L and H chain plasmids co-transfected, purified (protein A)
# B7: heavy chain of EBV320 paired with light chain of EBV321 (antibody, V domains shown)
# VH: B2 VH with S20T, D32A, S76T, L82M
# VL: B2 VL
# notes: also called 320H/321L
# B8: heavy chain of EBV321 paired with light chain of EBV302 (antibody, V domains shown)
# VH: B2 VH
# VL: B2 VL with T19I, S27N, V28L, G30N, R51W, S64K, G90A, D98G
# B9: heavy chain of EBV302 paired with light chain of EBV321 (antibody, V domains shown)
# VH: B2 VH with S20T, D32A, S76T, L82M
# VL: B2 VL
# notes: also called 302H/321L
# B10: anti-VEGF RabMAb EBV320 (antibody, V domains shown)
# VH: B2 VH with S20T, D32A, S76T, L82M
# VL: B2 VL with S27N, V28L, G30N, R51W, S64K, G90A
# notes: also called 320H/320L; source: 293-6E cells, L and H chain plasmids co-transfected, purified (protein A)
# B11: heavy chain of EBV321 paired with light chain of EBV320 (antibody, V domains shown)
# VH: B2 VH
# VL: B2 VL with S27N, V28L, G30N, R51W, S64K, G90A
# B12: heavy chain of EBV320 paired with light chain of EBV307 (antibody, V domains shown)
# VH: B2 VH with S20T, D32A, S76T, L82M
# VL: B2 VL with P44R, A82F, G90S, S96Y, N100S
# notes: also called 320H/307L
# B13: heavy chain of EBV321 paired with light chain of EBV307 (antibody, V domains shown)
# VH: B2 VH
# VL: B2 VL with P44R, A82F, G90S, S96Y, N100S
# B14: heavy chain of EBV302 paired with light chain of EBV307 (antibody, V domains shown)
# VH: B2 VH with S20T, D32A, S76T, L82M
# VL: B2 VL with P44R, A82F, G90S, S96Y, N100S
# notes: also called 302H/307L
# B15: anti-VEGF RabMAb EBV302 (antibody, V domains shown)
# VH: B2 VH with S20T, D32A, S76T, L82M
# VL: B2 VL with T19I, S27N, V28L, G30N, R51W, S64K, G90A, D98G
# notes: also called 302H/302L; source: 293-6E cells, L and H chain plasmids co-transfected, purified (protein A)
# Tests used:
# [1] = biological target: T1, Recombinant human VEGF165 (human, UniProt P15692-4, strain); experiment: cell-based or functional assay
# Target sequence in this assay (P15692 whole entry, looked up, stated change not applied): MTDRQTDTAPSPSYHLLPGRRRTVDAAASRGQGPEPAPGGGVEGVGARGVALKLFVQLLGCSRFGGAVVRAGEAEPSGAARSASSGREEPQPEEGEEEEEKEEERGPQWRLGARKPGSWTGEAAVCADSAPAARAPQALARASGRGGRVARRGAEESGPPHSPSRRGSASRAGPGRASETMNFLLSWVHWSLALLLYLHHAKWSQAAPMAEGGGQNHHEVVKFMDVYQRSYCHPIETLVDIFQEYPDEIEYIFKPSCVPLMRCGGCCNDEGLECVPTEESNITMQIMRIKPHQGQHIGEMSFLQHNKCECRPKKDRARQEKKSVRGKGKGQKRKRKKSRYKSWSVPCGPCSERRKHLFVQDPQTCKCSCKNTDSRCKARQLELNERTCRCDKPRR
# [2] = biological target: T1, Recombinant human VEGF165; experiment: SPR; BIAcore 3000; antibodies immobilised on CM5 chips by amine coupling (about 600 RU); VEGF165 (R&D Systems) injected at 0.2 to 50 nM, 35 µl/min, 25°C, HBS-P (10 mM HEPES pH 7.4, 150 mM NaCl, 0.005% P20); 1:1 binding model, global fit; conditions: both partners purified
# [3] = biological target: T1, Recombinant human VEGF165; experiment: ELISA; direct competition ELISA: human VEGF-A165 coated (0.05 µg/ml); reference antibody (0.04 µg/ml) mixed with increasing concentration of competitor, 1 hr at room temperature; bound reference antibody detected by anti-rabbit IgG Fc secondary antibody, chemiluminescence; conditions: both partners purified
# Target sequence in this assay (P15692 whole entry, looked up, stated change not applied): as above
# [4] = biological target: T1, Recombinant human VEGF165; experiment: ELISA; VEGF/VEGFR-2 interaction ELISA: 5 µg/ml Fc-VEGFR-2 (ECD) coated; antibody pre-incubated 1 hour with recombinant human VEGF (0.5 µg/ml final) before transfer to the plate; bound VEGF detected by a mouse anti-VEGF165 monoclonal antibody; triplicates; conditions: both partners purified
# [5] = biological target: T1, Recombinant human VEGF165; experiment: SPR; BIAcore 3000; antibodies immobilised on CM5 chips by amine coupling (about 600 RU); VEGF165 (R&D Systems) injected at 0.2 to 50 nM, 35 µl/min, 25°C, HBS-P (10 mM HEPES pH 7.4, 150 mM NaCl, 0.005% P20); 1:1 binding model, global fit; conditions: both partners purified; remark: listed apart in the source
# [6] = biological target: T2, rabbit IgG Fc-hVEGF (human VEGF165) fusion protein, wild type (human, UniProt P15692-4); experiment: ELISA; VEGF capture ELISA: Fc-VEGF supernatants captured on coated goat anti-rabbit IgG (H+L); hEBV321 at various concentrations, 1 hr at 37°C; detected by anti-human IgG alkaline phosphatase; conditions: one partner purified
# T2 construct: also called Fc-VEGF; VEGF wild type; source: HEK-293E cells, transient transfection, cleared culture supernatant; not shown: Fc (rabbit IgG), N-terminal, kept
# T2 sequence (P15692 other isoform, or with tags, fused parts or gaps): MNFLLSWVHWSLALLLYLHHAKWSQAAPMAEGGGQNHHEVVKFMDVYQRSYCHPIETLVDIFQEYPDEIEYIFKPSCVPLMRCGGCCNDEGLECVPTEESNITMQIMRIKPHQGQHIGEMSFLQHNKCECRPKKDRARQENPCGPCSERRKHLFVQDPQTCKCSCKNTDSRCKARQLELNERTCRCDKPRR
# [7] = biological target: T1, Recombinant human VEGF165; experiment: ELISA; VEGF/VEGFR-2 interaction ELISA: 5 µg/ml Fc-VEGFR-2 (ECD) coated; antibody pre-incubated 1 hour with recombinant human VEGF (0.5 µg/ml final) before transfer to the plate; bound VEGF detected by a mouse anti-VEGF165 monoclonal antibody; triplicates; conditions: both partners purified; remark: listed apart in the source
# [8] = biological target: T1, Recombinant human VEGF165; experiment: ELISA; antigen binding ELISA with the antigen coated on a 96-well plate; paired H and L chains of the 15 antibodies; grades against background reading
# Target sequence in this assay (P15692 whole entry, looked up, stated change not applied): as the sequence (P15692 whole entry, looked up, stated change not applied) above
binder,measurement,setting,value
B1,IC50 of inhibition of VEGF-stimulated HUVEC proliferation,[1],0.008 nM
same,Kd,[2],0.0115 nM
same,koff,[2],1.88e-05 s⁻¹
same,kon,[2],1.63e+06 M⁻¹ s⁻¹
same,inhibition of EBV321 binding to VEGF at 5 fold excess,[3],50%
same,IC50,[4],3.2 nM
same,Kd,[5],0.0119 nM
same,binding result,[6],binds
B2,IC50 of inhibition of VEGF-stimulated HUVEC proliferation,[1],0.039 nM
same,Kd,[2],0.419 nM
same,koff,[2],0.00119 s⁻¹
same,kon,[2],2.85e+06 M⁻¹ s⁻¹
same,IC50,[7],0.56 nM
same,IC50,[4],4.1 nM
B3,binding result,[8],binds
B4,binding result,[8],binds
B5,binding result,[8],binds
B6,IC50,[7],2.62 nM
B7,binding result,[8],binds
B8,binding result,[8],binds
B9,binding result,[8],binds
B10,IC50,[7],3.32 nM
B11,binding result,[8],binds
B12,binding result,[8],binds
B13,binding result,[8],binds
B14,binding result,[8],binds
B15,IC50,[7],25.2 nM
